Test results from publication PMC8635274.

Legend:
mCherry-FKBP-Ubc9 [1] = target: mCherry-FKBP-Ubc9 (UniProt P63279)
mCherry-FKBP-Ubc9 [2] = target: mCherry-FKBP-Ubc9 (UniProt P63279); remark: listed apart in the source

Substance	KM of SUMOylation of RanGAP* by E2 (Ubc9), without scaffolds (mCherry-FKBP-Ubc9 [1]) [µM]	KM of SUMOylation of RanGAP by E2 (Ubc9), without scaffolds (mCherry-FKBP-Ubc9 [2]) [µM]
FKBP-EGFP-RanGAP* (from UniProt P46060 398-587)	150	–
FKBP-RanGAP (from UniProt P46060 398-587)	–	2.5
